Reference: patent publication US20040062769A1 (US Dept. of Health and Human Services, published 2004)

Target: T1, FCR3.varCSA protein (Plasmodium falciparum (FCR3 strain), surface iodinated (125I) in the thrombomodulin bead capture)
T1 construct: also called FCR3-CSA var
Experiment: cytoadhesion of FCR3-CSA PRBCs to CHO-745 cells expressing CD36 (Table 1)

B1: human CD36 expressed on CHO-745 cells (receptor)
chain: GCDRNCGLIAGAVIGAVLAVFGGILMPVGDLLIQKTIKKQVVLEEGTIAFKNWVKTGTEVYRQFWIFDVQNPQEVMMNSSNIQVKQRGPYTYRVRFLAKENVTQDAEDNTVSFLQPNGAIFEPSLSVGTEADNFTVLNLAVAAASHIYQNQFVQMILNSLINKSKSSMFQVRTLRELLWGYRDPFLSLVPYPVTTTVGLFYPYNNTADGVYKVFNGKDNISKVAIIDTYKGKRNLSYWESHCDMINGTDAASFPPFVEKSQVLQFFSSDICRSIYAVFESDVNLKGIPVYRFVLPSKAFASPVENPDNYCFCTEKIISKNCTSYGVLDISKCKEGRPVYISLPHFLYASPDVSEPIDGLNPNEEEHRTYLDIEPITGFTLQFAKRLQVNLLVKPSEKIQVLKNLKRNYIVPILWLNETGTIGDEKANMFRSQVTGKINLLGLIEMILLSVGVVMFVAFMISYCACRSKTIK
notes: whole, on cells; also called CHO^CD36
- binding result: no binding
